“And” between values parts separate entries of the source, which are not always exact repeats. Equal entries are not always repeated.

For one assay, the target named is T1, Jac1_(L106) (S. cerevisiae, UniProt P53193 11-184, L106 to Ala).
T1 sequence (looked up): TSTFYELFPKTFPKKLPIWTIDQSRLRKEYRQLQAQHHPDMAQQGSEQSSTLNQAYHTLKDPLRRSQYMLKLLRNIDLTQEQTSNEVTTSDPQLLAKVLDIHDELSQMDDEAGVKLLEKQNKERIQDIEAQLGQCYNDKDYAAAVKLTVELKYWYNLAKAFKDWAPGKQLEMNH
Kind of assay: pull-down.

For assay [1], the target named is T2, Jac1 (wild type), His-tagged (S. cerevisiae, UniProt P53193 11-184).
T2 sequence (looked up): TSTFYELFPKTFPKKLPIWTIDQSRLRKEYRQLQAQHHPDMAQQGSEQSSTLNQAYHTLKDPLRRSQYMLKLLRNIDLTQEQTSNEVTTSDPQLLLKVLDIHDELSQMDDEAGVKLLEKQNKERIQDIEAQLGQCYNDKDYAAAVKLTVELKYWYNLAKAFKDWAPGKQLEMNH
Kind of assay: pull-down.

Another assay deals with T3, Isu1His (S. cerevisiae, UniProt Q03020 28-165).
T3 sequence (looked up): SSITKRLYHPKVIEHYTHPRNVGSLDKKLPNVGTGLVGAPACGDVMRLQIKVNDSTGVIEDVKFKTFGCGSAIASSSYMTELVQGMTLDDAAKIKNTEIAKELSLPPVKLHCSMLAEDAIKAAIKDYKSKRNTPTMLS
Kind of assay: cell-based or functional assay.

B1: Isu1-GST (natural protein, S. cerevisiae, UniProt Q03020 28-165, looked up)
chain: SSITKRLYHPKVIEHYTHPRNVGSLDKKLPNVGTGLVGAPACGDVMRLQIKVNDSTGVIEDVKFKTFGCGSAIASSSYMTELVQGMTLDDAAKIKNTEIAKELSLPPVKLHCSMLAEDAIKAAIKDYKSKRNTPTMLS
For B1, the Kd with Jac1_(L106) is 250 ± 70 nM; in assay [1], 690 nM and 800 nM.

B2: Jac1LLL (natural protein, S. cerevisiae, UniProt P53193 11-184, looked up)
chain: TSTFYELFPKTFPKKLPIWTIDQSRLRKEYRQLQAQHHPDMAQQGSEQSSTLNQAYHTLKDPLRRSQYMLKLLRNIDLTQEQTSNEVTTSDPQLAAKVADIHDELSQMDDEAGVKLLEKQNKERIQDIEAQLGQCYNDKDYAAAVKLTVELKYWYNLAKAFKDWAPGKQLEMNH
Take B2: the “stimulation of Ssq1 ATPase activity: C0.5 compared to the wt control” value with Isu1His was ~24 fold.

B3: Jac1Y (natural protein, S. cerevisiae, UniProt P53193 11-184, looked up)
chain: TSTFYELFPKTFPKKLPIWTIDQSRLRKEYRQLQAQHHPDMAQQGSEQSSTLNQAYHTLKDPLRRSQYMLKLLRNIDLTQEQTSNEVTTSDPQLLLKVLDIHDELSQMDDEAGVKLLEKQNKERIQDIEAQLGQCYNDKDYAAAVKLTVELKAWYNLAKAFKDWAPGKQLEMNH
On to B3, for which the “stimulation of Ssq1 ATPase activity: increase of C0.5 against wt” value with Isu1His is ~15 fold.

For the origin of these results see publication PMC3288383 (Journal of Molecular Biology, 2012).
